Assay: soluble on expression in E. coli; label from the status in PepcDB or PDB records

Sequence | soluble on expression in E. coli
MGSDKIHHHHHHMVMYLENPGKLDRKFFTESILRYTGYRRPEDKVPPKNGVDTGIISIGNGKVMAVTTDPFYFDPVFGYEDSAWFAYHILASDITTAGVYPEYMTVDLNLPISISNEEIARMWKTVHEEAYKYKTSIITGHTARYANTGFPMVGGATMFGFTDDDKYVTTAMARPGDIMIMTKTAGIEAASLLTRIFPNHVKKNLGEDKYRYGFELFRKLSTVDEAIQAIEFGTRKAITSMHDATEGGLLGAVYEVAEASGNGVSIDKEAIHVDDYVKEIHSLFGIDPLRSISEGTLLMTIDPEYADEFMKRLTKSGIDSYVIGKMTTKDEGIKFKDGSEPIGEPEKDPFWYAVEKSMKMGLS | not soluble
MGSDKIHHHHHHADTTDNTTTSSSTSANSGSTVQTKALSKAYVVYGAGLASEDKDTVASALGVKSNYTALTATGSDYATYLNAAGTTDASMISSVTLAPADPGTGVKVNIAKYNGSNNITEVTSQQYAMVATMAGVKDVIITVTADKSVSGESALTGVYKALAADGLTLNSQNTQAANGVLDATQPAIDSNSSDKKYPGKLMSAVGSVSSDLAKQRQNGNELATKADIEEMLQKALAKQGIANQTSSTQITNIAIALSQVQKAPVSTSKTYIKNVTNVADSLANSIGDKMASVKDFANSADAKQAENFIVQIWHNVVNFFKGLIGG | not soluble
MKKPIEFYLSGDRVYSTREKAINQLYNNRGYGELKGDKLFLSLIEAAYLTEKGWIKVVDKDKELKFDDLMKLGKSRDEDFDIKYIVYKDLRDRGYIVKSALKFGSHYRVYRKDAEHSDWLIWVLRENQRLSPNDITARARVAHGVRKNMVLAIVDEDGDVVYYKVEWIKF | soluble
MGKFLVQFWGVRGLIPTPSSNTSRYGGNTACVEMQVAGKRLIFDGGTGLRILGKAWQHLQQPLEAHLFFTNSQSNRIQGFPFFAPAFIAGNCFHIYGGAASNGASIKQCLCDQMLQPHFPYPLQVMQSELQFYPLTPDSEVKLDDVTIRTALINQTQRSIGYRVTWQEYSVAYVTDLNMSAEQGEREQVLQIIQDVDLLIANATYTPPTSHDHESVDLLWQAAVEMAQKAGVRKLIISHHHPDDHDDFLDQVEKEVQSTFSDALLACEGLALPVFLEHHHHHH | not soluble
MSLSPDSAHQQVSLRGGSGSEFMIVDITDGRLLGTIDSAKAMSQTHPGAVYLHQGESFVIDELDLEENLALARPELPDYTTYARSDTDIRITSAPLEDEVFDAGGGLWVANVEVQVTDRVTGYVTRLSDGTTLDATPLYLPPQILQTRAVAYTIDPLALEAMGIPAADIPGALHAAEHAAIGMLPLLATCDRWDIGGVSTALHADTGYPTVFVYDGMDGGAGFADTGFRRFAQWIEATFEVVRSCSCESGCPSCVQSPKCGNGNNPLDKAGAIKLLGAMVTLLGTSEGHHHHHH | not soluble
MTHSKDKKSHAFKGIGEKLNPTIYQVRFMKLDEPIRFESFPELKELGDWLSTSTHMWSCHSTMYKYNREEFEKKFLEITKLTADHVLISTGGVGFNFMSPGWRNSL | not soluble
MAASRDIFAPDFRRRPYWWEGYEPPECGEDTLPASADVAIVGGGYTGVCCALALREAGIEAVVLEAGRPGEGASTRSGGQVSGGVNVQKKALAAVGESAGQRAERLAARLRDAAASMAYVESLIERYAIECGWHRTGRLTTMWVPAHYQSWQARLDQLNACTGSQARMIPREELAAEIGSSVYHGAALIEHAGHLQPAQLYGGMLRAARDAGARVLGRTPVERIERRAGGYDVHTARGTVRAGQVVIATNGYTGANLGGLKRRIVPVCTHMITTEALPPDLAASLLPTNRAVSESRRVVNHYRLSPDGRRLLFGGRARFVPTDEATTARLLYRAMLKRFPQLAGTRITHSWGGNVAMTLDSMPHIGGADGLHYALGCNGSGVAMMSYLGHCVGRKIATQSGEPINAFDMGEIPGHPFYFGNPWFLFAIGSWYQARDAYDHWRARLEHHHHHH | not soluble
MAFQQPNLQQIFSSVDKDRSGQISSDELQTALSNGTWNPFNPETCRLMIGMFDSNGDGAINFQEFQALWRYINDWTNCFRGFDTDGSGNIDKSELTNALTQFGYRLSPQFYNILMHKFDRSHSNRINFDDFIQLCVVLQTLTAAFRLEIRAKIDLEI | not soluble
MGSDKIHHHHHHMTKDDQKELGKTLWAIADQLRGSMNADDFRDYMLSFLFLRYLSDNYEAAAKKELGSDYPDAKTIGNSDKTPLSVWYASNPGDVAAFEQQMRRKAHYVIKPKYLWGNIVNLAKKQNHDLLDTLQQGFKHIEEDSFESEFQGLFSEINLASDKLGRKYDDRNAKLCSIISEIARGMALSAKTDSLGDAYEYLIGQFAAGSGKKAGEFYTPQEISNILSAIVTLDSQEPKTGPRGKLDSVFDFACGSGSLLLNIRNRMTNSGGSIGKIYGQEYNVTTYNLARMNMLLHGVKDTEFEIYHGDTLKNDWDWLRETNPAKKPRFDAVVANPPFSYRWEPGEAMAQDARFKNHGVAPKSAADFAFLLHGLQYLKDDGVMAIILPHGVLFRGGKEADIRRKLLDDGHIDTVIGLPANLFYSTGIPVCILVLKKCKKPDDVLFINAAGHFAKGKRQNQLTDEHIQRIVNTYQNRNKQDRYSRCVSMKEIADKDYNLNISRYVSTAEADKEIVLEAVHADLTAIESRLEESKKRHNAFLVELGLKPLP | not soluble
MKQPEEELQETLTELDDRAVVDYLRHHPEFFIRNAHAVEAMRVPHPVRGTVSLVEWHMARARNHINVLEENMTLLMEQAHANESLFYRLLHLQSRLVAADSLDEMLVRFHRWARDLGLAGATLRLFPDRWRLGAPSRYTHLALNRQAFEPLRIQRLGQSQHYLGPLNGPELLVVLPEAKAVGSVAMSMMGSDGGLGVILFSSRDPHHYQPGQGTQLLQEIALMLPELLERWIKRVLEHHHHHH | not soluble
MRYHGGLLLGAFDDDGKIIGMSFGYPGFRNGKLYLYSHMAGVVENKKYSNVGYSLKMKQRDLAASMGYDLIAWTFDPFNPLNAYFNISKLGAITRTYIKNFYGVMNDGINRGMRTDRVVAEWWINLQIDRNCEIIDFLNDVDRYSEISTIHESSCLGFYVPPDISYFHKYPDLGSKLKDAAFEVFNALFSKGYAIVAYKRGKSNYFVFKRIENLGKRIFDPIVK | not soluble
MRPIEEFVYVGNQVIVPDQASLMRCYYPIIGGEGYALYQYFVAFYDNGNHRHKFATILNHLNFGMQPLQESLAVLTAVDLLAFYHSPQGIYVVELKSPLSIEQFLKHAVYSSLLEQKIGEPAVDALKPTSLHGLQDLSKRFSDVFTDERLAQKSVSEIKPKNSFDLISFRNRMQADGLVFTDEKTDVPEIYKLSETYDMNWYDTYLLSKKTAVNHRIIVKRMQVQLEQAQAQKLGGDSALTETEKKILKAVKSGKPVDYLQSAKGPGGTVTNSEKKILTDLAQRGFMDEVINLMVAYSLGRTRSTNVNREYISKVANDFDFKKIVTAEQGLLALRSGYDKKSQRAKDDSKKKTNVPSWSDPDYDNQTNQADQAKLDEIRRRALAKLEKG | not soluble
MGSDKIHHHHHHMVEIINPFDGGGYSLAEMTQAINILPNLYTRLGQMGLFRFEGVTQRSVIIEQAEGVLNLLPTVPLGGPATVANRDARSMRSFTVPWIPHDDSITPQDVQGVRGFGVADAADPLATVMERKLTRMRTKHAQTREFMEINALRGIVRDGSGSTLYDYFAEFGLVRQQVDFALGTAATNVQAKIREVLRLVEVELKGETMTSVTALVSPAFFDKLISHPKVESAYQYFSSTGAQPLREDVRRRFPFAGMVFEEYNATVTLATGSNETLVPAGEGIAFPLGTTDTFVTYGAPANLIETVNTMGLPMYARQLARQDGSAIDVKTEASILPVNKRPRLAVRIFSGN | not soluble
NKDMNFTIRANYTFSQNVIDYFEENKLPYDYLSVTGKPFNILRGYISEGLFASKEEINTSPDQSGFGTIRPGDIKYRDVNGDGIINEDDKVPLSYSNQLPRMMYGFGGDFQWKDLTVSILFKGSAKVDYYRAGLGNDYGWIPFYNGDLGNVIKLANNPKNRWTPAWYSGTTATENPNAEFPRLSYGKNTNNSQLSSFWRRNGSFLRLQEVSLRYSLKHLPWIKSVGLSSVDLEFVANNLFTIDKVKYFDPEQASANGAVYPIPATYAFQVYLRF | not soluble
GPGSMAGVLHETATTVSYRGALCKLAGVELQGINLSPPQRLCQLELLISREINWLAAVLEEWEEKYMLFTCVPYRGVVDAFTTLLRTIKRHLETENSSKDNEKEWDALLASSITEFQVEVMEIGKGKSY | soluble
MLPSWKAFKAHNILRILTRFQSTKIPDAVIGIDLGTTNSAVAIMEGKVPRIIENAEGSRTTPSVVAFTKDGERLVGEPAKRQSVINSENTLFATKRLIGRRFEDAEVQRDINQVPFKIVKHSNGDAWVEARNRTYSPAQIGGFILNKMKETAEAYLAKSVKNAVVTVPAYFNDAQRQATKDAGQIIGLNVLRVVNEPTAAALAYGLDKSEPKVIAVFDLGGGTFDISILDIDNGIFEVKSTNGDTHLGGEDFDIYLLQEIISHFKKETGIDLSNDRMAVQRIREAAEKAKIELSSTLSTEINLPFITADAAGPKHIRMPFSRVQLENITAPLIDRTVDPVKKALKDARITASDISDVLLVGGMSRMPKVADTVKKLFGKDASKAVNPDEAVALGAAIQAAVLSGEVTDVLLLDVTPLSLGIETLGGVFTKLIPRNSTIPNKKSQIFSTAASGQTSVEVKVFQGERELVKDNKLIGNFTLAGIPPAPKGTPQIEVTFDIDANGIINVSAKDLASHKDSSITVAGASGLSDTEIDRMVNEAERYKNQDRARRNAIETANKADQLANDTENSIKEFEGKLDKTDSQRLKDQISSLRELVSRSQAGDEVNDDDVGTKIDNLRTSSMKLFEQLYKNSDNPETKNGRENK | not soluble
MTMKCFLVILPLLVLYWIVSNRKRSGPLTNPHYKECLRKEWYTSPNVSSTEDFGSSYQISFADVQKTFKWLYLPEIDDPEIILTVMTRVDALARRNVLRKTWMTQRNRIKSIFVIGLGGDVDQKTKELVMSEAALYGDMVVTNIEDSFSKVAFKMLSMLLYGFSKVPSAKFIGKVDDDVLFYPNVLLSYMDNNTDTIHPQGSRMYGHITETRFITAGIPTGAECCEKFDSDSKCANYVTFLGGSFLMFTRQAVEGVLMASKHRKFHRIDDTMVTGYLADDVGAQRVNMTMMFMGYEPTKEPILFSSHIPLKDHEYLEQYRIQMADFKEQRLFTKYIGE | not soluble
MGSDKIHHHHHHMKIARLNLWHVPLTSHTAYYMADGKTCDTVETVVIAVQTDTGITGWGEVCPIPHYLPAYARGVAPALTELAPVILGADPVGVGALMERVDAVLHGHPYAKSALDIALWDITGQVAGLPLHALLGGWRAADMPLYHSITCIAPDDMARIAREAQAQGITQFQVKLGASGDWQTDVERLAKVREAVGPGPLVYGDWNCGATSLEAIRVGRAVAQLDIMLEQPCATLEDCARVQRATGLPMKIDELAHDTASLLTAHRLGIMDAVALKLSKFGGLSTTRRARDLCLHLGARMCIEDTWGSDITTAALLHLGAASEPGRVLNVCDLSGYVAPRLAPDAPVRANGRIAPPEGAGLGITVDRGALGVPDLILD | not soluble
MKKKGKFLLFTMDEFDQWLLETRFSRSVKLVQNHHTYLPGYVQFTGSNHFGLLEGMEHFHMAERGFSEIAQNLTSFPDGTVAVCRSIDKVPCGIKGANQEGICLENLGNFDAGGDTMTPAHRDAIVKINALLCREFNLTPNTDSIVYHHWYDLNSGKRTGGSGTTKTCPGTAFFGGNSMDAAAATFIPLVAQTLAQLTGGTAPSAPVPLKSGEVVASSLNVRAGRGTEFPVVKGLKRGVRVNVFETADGWVRIHPTEQQWVAERYLRYAAAALEHHHHHH | soluble
MGSDKIHHHHHHMNNTTENGQYFVAAFEPGAEHPALPTWASCNDNGAELALSAPSTVSKKPLTDVPGAFQLLNVLSADECQRLISVSETMGFLPDAAVSLPRNVRHNDSLTWVVDNTTERLIWDRIAGVMTDDLGIFEGKAALGLNNRFRFYRYNEGDYFKPHSDGSWPGSQVIDGELVRDAFGDRYSQLTFLILLTEDFEGGATRFLVNADKPNLPAKHGDNMRQVDVRTPAGSVLCFPHGMHPLHCIHSSEPIFSGVKYIIRTDVLFEL | not soluble
